Source: the DeepSol protein solubility set

test: soluble on expression in E. coli; label from the status in PepcDB or PDB records

Soluble on expression in E. coli, not soluble:
MGSDKIHHHHHHMPRPAPRVTNSPMNTSPTWGVVATVKAPEHEILRFAAWHLELGAHRLFLYLDDPDPAVFARLKAHPRIRVFACDDSYWQRRKLSRPVKHQARQTMNARHAYNRADVDWLAHIDVDEFIWSETPIAAVLSGLPDDTLCARMRPIEALAGGDALYKAFIPGGPARDGIVRRLYPTFGAFVKGGFMSHVAGKVFARTGMEKVDFRIHNIFRNKEMNPHQVELDMVDLCHRHGADWDHWIAAYRYRIAQGSYRPDLAPNVPREAGGLSMHELLSGIEEEQGEDGLRAFFDELNACAPEGRARLRAEGMLKHRPLDLDGAMQKQFPK
MGSDKIHHHHHHMPSIRVVNLKKYFGKVKAVDGVSFEVKDGEFVALLGPSGCGKTTTLLMLAGIYKPTSGEIYFDDVLVNDIPPKYREVGMVFQNYALYPHMTVFENIAFPLRARRISKDEVEKRVVEIARKLLIDNLLDRKPTQLSGGQQQRVALARALVKQPKVLLFDEPLSNLDANLRMIMRAEIKHLQQELGITSVYVTHDQAEAMTMASRIAVFNQGKLVQYGTPDEVYDSPKNMFVASFIGNPPTNFLRDFSVSVENKQTILKRDDVIIKLPEPVDVKLKEVVVGIRPEHCRISRERVENSIPGVVYVVEPLGRDIIVNVKTEKGEIIKVFGDTGKAPQPGENVFLVPDLRKIHLFNPETEETIL
MGSDKIHHHHHHMPTLDPLSLRLFVSVAEAGTIAAAAEREHIAAAAVSKRISEIEATLGVALLRRTNKGVAPTAAGERLVVLAHRALHELDDIAVQMRDYASGVSGLIRLAANVSSVVQFLPREIQAFAAQHPRIQIQLEEKASAGVVKAVADNAVDIGIFTSVPHGYEVQTFPYHRDFLTLVVPGGHTLAQKQAVAFADTLDFEYVGLPPDTAISQQLTRAAHAHARPVNLRIQVTSYDAQCLMIAAGLGLGVMPHAVAQQQAANLGLATVALTDAWAERELLIAVRSLEALPVACRMLVAHLRGA
MGSDKIHHHHHHMPTPRPWLYLGTTHALCEDCLALIPAKVVAEDGCVWHLKRCPAHGPQRTMISSDYAYWREARDFIKPGDLPAHFHTQVDKGCPHDCGLCPDHEQHSCLALVEVTDSCGLDCPTCFAQSRPGRGHRSLAEVEAMLDAVVRSEGGSPDIVQISGGEPADHPQILEILRAAKARPIRHVMLNTNGVRLARDPDFATALAGLGPGFEVYLQWDSLEPEALSVLRGADLREVRKGALAALDRHGISTTLVCVMAKGVNDGEVGAIIDHALAVACVRGVSFQPLQDAGRSPGLGKDSRMLPSDIRRAIIEQSNGLFGPADLVPLPCNPESITIAYALRHGNRATAVTGLVPRDLLLSAVPNALTFDAVPGLKDSLMRLLSMSCAGEDTAVQMGKLLCCLPGIQAPASLTYDKVFRLSIVQFLDRYSFCLGQVKRACVHVAQPDGKMIPIDTFNLFHRSNNHD
MGSDKIHHHHHHMPVTHLAGALCHPTDCTLRASNSQHIATRFNEHSSVSHTRDLDRVQVAERWSRIKECNYVPVKVANTRADLGESLVWDERSGVLYFVDISGGRINGLTPDGEVDCLYESAARIGALALTDRGNLIFTEDASVAIFDVPTRKVSQHSASVHPRSTYRFNDGACDPQGRFVTGLMDEALSDNTGALFRFDWQLSDQVIHDDMGLPTGLAWSHDGHTVYFVDSAARAIYRAEYLIEGRLGAVTLFAETPAELGRPDGLALDREGGLWVCQYHGSCLLRYDRHGYLTDQVLMPVPCPTSCCFGGPGMNTLYISTARYDMTPEDLHHYPDAGDLYAIRPETGGVARHSFKE
MGSDKIHHHHHHMPYINVRGVEHYYEWVKQPSGDLVKPVMVFIHGWAGSARYWISTANALSDQFDCLLYDLRGFGRSQGKPTVAQASESVVGADSTQEKSQAIQELTYEIEEYAEDLVVLLDELKLQRVYVNAHSMGASVATMFFNRYPQRVERGILTCSGIFEYDEKAFAAFHKFGGYVVKFRPKWLGKIPLVDRMFMARFLHRPIPKSERKAFLEDFLVADYDTALGTIFTSVSKAQAEVMPQEFAKLQVPTLLVAGEYDQIIPAKMGRQAASLNDKVEFVLIPNTAHFPMLEDAPTYLRRVREFLQVATPELQTS
MGSDKIHHHHHHMQALERDYGHGDEVASHCHAEDQLIYAASGVMRVSSEGGSWVIPGGHALWMPAGVSHAIRMKGVVCMRTLLLDAHIERCQVIVVSGLLRELILAASRVLNLRDGAHARALILYELAAARRIDAFVPTPQHARLRAWCERFLQDPAQDLTLEQCGAQLNMSARSVARLFQREVGMSYGQWRARARVMLSQQCLADGKPILNVALEHGYQSASAFTAMFKRILGHAPSDWQNGTAREY
MGSDKIHHHHHHMQEYKACAAHTDILKKYGFKVEKGFANFETAYKASYKKQNGPRIAILAEYDALPKIGHGCGHNAYGVTSIAGGILIKELIQKLDLQGEILVIGTPAEETNGAKVDMAKLGIFNDIDVAMSVHPSGEAHIRSGKSHAMEALQFTFKGKTAHAAASPHEGINALDGVLNLFNSINALRQQILSSARIHGIISNGGEAANIIPDLAIANFYVRAETLEYLKELVKKVKNCAKGAALASDTELEITNYETSFANLVTNKKLMKLYEKNLRTLGVTDIRDKEGLGSTDMGDVSHCCPTIHPYFPLTTRHLVGHTIEFATATIQEEAYKGMKEACLAMALSCLDIFEKPEILKEIKEEFYQTFKK
MGSDKIHHHHHHMQFCSSDEFASKTMIKWPWKVQESAHQTALPWQEALSIPLLTCLTEQEQSKLVTLAERFLQQKRLVPLQGFELDSLRSCRIALLFCLPVLELGLEWLDGFHEVLIYPAPFVVDDEWEDDIGLVHNQRIVQSGQSWQQGPIVLNWLDIQDSFDASGFNLIIHEVAHKLDTRNGDRASGVPFIPLREVAGWEHDLHAAMNNIQEEIELVGENAASIDAYAASDPAECFAVLSEYFFSAPELFAPRFPSLWQRFCQFYQQDPLQRLHHANDTDSFSATNVH
MGSDKIHHHHHHMQGDKHRRRVPFASRAEAHARYGAILTEANRHGAQVVLATLAELGRLDLFFLLVVLLKRKDADNDWCFARCREVAASPDGHLDLWAREHYKSTIITFALTIQDILCTPDITVGIFSHSRPGAKAFLQQIKREFEENPVLRAAYPDVLWDNPRTDAPQWSLDGGIVVKRASNPKEATVEAWGLVDGQPIGKHFSLLVYDDVVTPESVTTPDQIRKTTDALAVSYNLGAHGGRRRFIGTRYHFSDTYKDILDRETAVPRIYPATVDGSVTGLPHFLSPEALAAKRRDMGPYIFGCQMLQNPKADDAAGFKAEWLRYWEPSRDLCERMNRYIIVDPAHSKKAAADYTVMWVVGFGADGYRYVIEGVRDRLNLAERTRELFRLVRAHRPLCVGYERYGLQADVEHIRGEQDRTGYHFDIVELGGAMPKADRIRRLVPLFEQGRIFLPGRMSYRDVEGRWRDLTGEFVQEEYLAFPVCGHDDMLDCLARQVDEALGAVFPDEDDYAASVGGMPNDPHAGALTSLGFDDYDPLGHMRASS
MGSDKIHHHHHHMQNTDIVVIGSGIGGLSCAALLARYGFDVIVCESHSIAGGAAHGFERNGFKFDSGPSLYSGLSYSPSANPLRQVLDAIGSELPCVTYDTWGCCLPEGDFDTAVGAEQFCEVLMKFCGDDAVAEWQELQRVMEPFARAATSIPPAALRFDFGAARTVGPFVPSLTKNVANIIKLTGPFSRIMDGVVKDSFTRNWLNLLCFLLSGLPADGTSAAEVAFMFADWYRPDAILEYPIGGSSALVDSLVQGLERHGGKLMLGAHVEEVLVEGNRAVGVRLRDRSEIRAKLAVISNASVWDTLKLLPEKAIPKQYRSKRQATPECDSFMHLHLGIDAQGLQSNLRCHYIVVNNWELGVTAPQNVVVISIPSVLDPSLAPAGKHVIHVYTPGNEPYSFWQGMDRRSQEYAEQKRSRAEVMWQALERIIPDIRSRCEVTLVGTPLTHERYLRRHQGSYGPAIQAGSGMFPSPSTPLPGLMCCGDSTFPGIGLPAVAASGLIAANTLAPVNKHLAMLQDINCI
MGSDKIHHHHHHMQPDLLVFGGDLISGPIPLETLDLIYDLKSKYRTASVLGNNDQDIIDSYENKKLSLSNKAQEQIKWVTRLLNEKQILDLKDMPININVGKYFFCHAIADDNRTIFTQKTRISNIKQLFLEVISPFIICGHTHLQFKLKIGSQQIINAGSVGMPFSDKKGAQWLWIENNNFQFRRTLFDEDIAIKNMKNSDFPFVNQFIEEYVKNTVKVRTGYKILRRLEENNRLRK
MGSDKIHHHHHHMQPDVRHSPKEAFEFAANNGFTHVEILMDHPLYSLENLSFAEVIELKWSYDLDLLIHAPATSTNFISISNEMRKASYKEMSKVCYFAEKCGAEVVTFHIGWNPAFINNGNFYFNKSLFDRHNESVLLNEFLPFVKTCPVQLALENTIMIEDGLERALNEIMGKTTLGLTIDVGHYNIRENPFFLKNFDRVVNMHLHDNDGTADQHLALGRGTVDLSKFNLNRYTGFLTIETREEKSIIESRDYLMRVIV
MGSDKIHHHHHHMQPMDAEVLRILRKNNKSQDWGKINKKLHPKIVKYVDGKPVYQFFDTLNDNSFEKNGQLISIRTQPVNSFVPYHVHNYVEMMVVLSGRCVIKTQSESITLIQDEIMIIGCKTIHKIKPINDETIVVEIALKRTAFSLRDLTFLTHSRDAQSVSSTVFFLLSNDDSYGAFNVFHTQHDVNVVNKVNNIIREYYRPDNYSNQVIKFKILELFIRLVRLASKGPILQTQKEDHKNNEVDALTLLLYIEKNYKTVTLKSMAKHFKFHPNYLSSILKRKTGYTFIKLVHLQRINVAAEYLSLTDISIESISLAVGYEDPSCFYKIFRNHMGCSPREYRQRQAA
MGSDKIHHHHHHMQQGQMAYDRAITVFSPDGRLFQVEYAREAVKKGSTALGMKFANGVLLISDKKVRSRLIEQNSIEKIQLIDDYVAAVTSGLVADARVLVDFARISAQQEKVTYGSLVNIENLVKRVADQMQQYTQYGGVRPYGVSLIFAGIDQIGPRLFDCDPAGTINEYKATAIGSGKDAVVSFLEREYKENLPEKEAVTLGIKALKSSLEEGEELKAPEIASITVGNKYRIYDQEEVKKFL
MGSDKIHHHHHHMQQKKTTKEEYQKCVNVVVEYINQHLGEDIDLKSLARISNFSPFYFHRIMKAFLGEPIGTFIVRTRTEAAARLLRYSDIPIADIAYRIGYSSPSSLSKVFRQFYGISPLEYRNNKNFVIMKPAIIRPDLELKSEIKSIPARNVIYIRLSGDYKLNDYGGTWGRLWQFIKEQKLPMGDFSPLCIYHDDPKVTPAEKLRTDVCMVMPVQVAPKGDVGFKTLPAGRYAIFLYKGTYDNLQAVYDTIYGKCLPEMECTLRDEPSAERYLNNPCETAPEELLTEIYIPVE
MGSDKIHHHHHHMQSGYYSSTGGIVTQFHRLDMISNNLANANTTGFKRDDVVIGDFLRLYEQQKEPLPLEDQTREAAKFLNRAMDRVPSIVEEYTDRSIGGITPSENRFDFALQSENAYFMIETPEGIRYTRDGSFTLNSEGRLVTKEGFAVLPREFVQSRQYIDIPDGVVIEADRNGNLYSRTLNNDELGDIIPLGNIAIASFENPKYLEKTGKNLYEYPQERMGERNLATNSGALVQGYLEKSNVNAVWEMTGLIETNRLVDMYSKVMKTHMDDLNTEAITKLAVKA
MGSDKIHHHHHHMQSIPHVDMRRYQNDFDAFTQDVGNGYEKYGFIALTQHGVDTALIERALDTCRELFALPEDVKKQYHRPGQGGARGYTPFGTEVAKDAKHVDLKEFWHVGREVEGEPAYPQLLPNVWPQELPKFKDDMLAIYAALDNLGNQVLEALSVYLGQPKDFFRNKVNNGNSILRPLHYPPIIDEDTPSVRAGAHEDINVLTLLVGSREPGLEVLAKDGTWVPVTIIEGAIICNVGDMLQRLTNHVLPSTTHRVVNPPAPFNEKSRYSIPFFLHFNPDVMITPLESCISDENPQRDEPITADDYLMQRLREIGLIKD
